Measurements taken from patent publication US20070009511A1 (Bristol-Myers Squibb, published 2007).

Molecular target: T1, CD86Ig (UniProt P42081 24-247)
T1 construct: extracellular domain; Immobilized on BIAcore chips; also called soluble CD86Ig; B7-2
Assay: SPR, CD86Ig immobilized, monomer against dimer

T1 sequence (P42081 24-247): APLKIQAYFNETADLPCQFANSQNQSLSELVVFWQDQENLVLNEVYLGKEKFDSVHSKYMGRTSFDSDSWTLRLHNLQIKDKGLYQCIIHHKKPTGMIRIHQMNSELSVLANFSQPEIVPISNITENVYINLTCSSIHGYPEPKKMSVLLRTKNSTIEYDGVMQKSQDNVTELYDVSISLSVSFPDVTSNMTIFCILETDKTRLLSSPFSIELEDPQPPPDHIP

B1: L104EA29YXC120S (receptor)
chain: MHVAQPAVVLASSRGIASFVCEYASPGKYTEVRVTVLRQADSQVTEVCAATYMMGNELTFLDDSICTGTSSGNQVNLTIQGLRAMDTGLYICKVELMYPPPYYEGIGNGTQIYVIDPEPSPDSD
notes: also called single chain L104EA29Y extracellular domain
For B1, the “fold lower binding affinity than the respective dimer (L104EA29YIg)” value was 35 to 80 fold.
